In US20020127539A1, “Assays for identifying receptors having alterations in signaling” (priority 2000, published 2002):

Experiments:
MC-4 receptor = target: T1, MC-4 receptor (Homo sapiens, UniProt P32245, D146M); assay: SMS-Luc luciferase reporter assay in HEK293 cells; assay type: cell-based; conditions: FIG. 10
T1 construct: expressed in transfected cells; host or cells: HEK293
Description: Briefly, HEK293 cells were cotransfected, as described above, with an expression vector encoding either the wild-type MC-4 receptor or the Asp146Met mutant MC-4 receptor and the reporter construct, SMS-Luc. As a negative control, cells were transfected with SMS-Luc and pcDNA1. Basal and ligand (αMHS) induced activity of the negative control, the wild-type MC-4 receptor, and the Asp146Met mutant MC-4 receptor were measured using the luciferase assay described above.

rat mu opioid receptor = assay: CRE-Luc luciferase reporter assay with forskolin stimulation; assay type: cell-based; conditions: FIG. 3, CRE-Luc
Text: Similarly, a constitutively active rat mu opioid receptor was identified using a reporter construct sensitive to Gαi coupling (see FIG. 3). The response element employed in this assay was the cAMP-response element (CRE), which is sensitive to Gαi mediated changes in intracellular levels of cAMP. Signaling through the rat mu opioid receptor via Gαi inhibits adenylate cyclase, causing a decrease in intracellular cAMP. Therefore, an increase in rat mu opioid receptor signaling induces a decrease in CRE mediated reporter activity.
Prior to the present invention, Gαi-mediated decreases in intracellular cAMP were measured by (1) stimulating cells with forskolin, which causes receptor-independent activation of adenylate cyclase and generates an intracellular pool of cAMP; (2) stimulating the cells with ligand; and (3) measuring the ligand-induced, receptor-dependent Gαi-mediated decrease in the intracellular cAMP pool (e.g., using a radioimmunoassay (e.g., New England Nuclear, Boston, Mass.)). […] The basal (and ligand-induced) level of receptor activity was then measured using a standard luciferase assay (see FIG. 3). Coexpression of the receptor of interest with a luciferase reporter gene construct allows one to measure light emission as a readout for basal signaling.

T1 sequence (P32245 whole entry D146M): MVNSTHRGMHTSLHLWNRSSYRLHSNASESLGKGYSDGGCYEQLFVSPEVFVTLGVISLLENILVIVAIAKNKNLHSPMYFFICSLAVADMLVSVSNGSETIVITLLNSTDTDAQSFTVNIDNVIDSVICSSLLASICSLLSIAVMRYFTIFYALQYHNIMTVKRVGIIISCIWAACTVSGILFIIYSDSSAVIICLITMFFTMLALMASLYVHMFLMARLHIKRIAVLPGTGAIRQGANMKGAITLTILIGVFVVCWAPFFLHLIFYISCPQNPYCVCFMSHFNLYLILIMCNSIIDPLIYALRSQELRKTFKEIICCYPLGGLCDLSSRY

In the case of “Asp146Met mutant MC-4 receptor: melanocortin-4 receptor with Asp146Met substitution in the DRY motif”, the “basal level activity compared to wild-type MC-4 receptor” value (MC-4 receptor) is reported as “higher basal level activity”.

For `C[C@@H](NC(=O)[C@@H](N)Cc1ccc(O)cc1)C(=O)NCC(=O)N(C)[C@@H](Cc1ccccc1)C(=O)NCCO` [DAMGO, [D-Ala^2-MePhe^4, Gly-ol^5]enkephalin], reference compound], the “effect of agonist stimulation on forskolin induced activity” value (rat mu opioid receptor) was “decrease in forskolin induced activity”.
